To fix the notation:
B1: E3 ubiquitin-protein ligase MARCHF6 (Homo sapiens), O60337 (parent)
chain: MDTAEEDICRVCRSEGTPEKPLYHPCVCTGSIKFIHQECLVQWLKHSRKEYCELCKHRFAFTPIYSPDMPSRLPIQDIFAGLVTSIGTAIRYWFHYTLVAFAWLGVVPLTACRIYKCLFTGSVSSLLTLPLDMLSTENLLADCLQGCFVVTCTLCAFISLVWLREQIVHGGAPIWLEHAAPPFNAAGHHQNEAPAGGNGAENVAADQPANPPAENAVVGENPDAQDDQAEEEEEDNEEEDDAGVEDAADANNGAQDDMNWNALEWDRAAEELTWERMLGLDGSLVFLEHVFWVVSLNTLFILVFAFCPYHIGHFSLVGLGFEEHVQASHFEGLITTIVGYILLAITLIICHGLATLVKFHRSRRLLGVCYIVVKVSLLVVVEIGVFPLICGWWLDICSLEMFDATLKDRELSFQSAPGTTMFLHWLVGMVYVFYFASFILLLREVLRPGVLWFLRNLNDPDFNPVQEMIHLPIYRHLRRFILSVIVFGSIVLLMLWLPIRIIKSVLPNFLPYNVMLYSDAPVSELSLELLLLQVVLPALLEQGHTRQWLKGLVRAWTVTAGYLLDLHSYLLGDQEENENSANQQVNNNQHARNNNAIPVVGEGLHAAHQAILQQGGPVGFQPYRRPLNFPLRIFLLIVFMCITLLIASLICLTLPVFAGRWLMSFWTGTAKIHELYTAACGLYVCWLTIRAVTVMVAWMPQGRRVIFQKVKEWSLMIMKTLIVAVLLAGVVPLLLGLLFELVIVAPLRVPLDQTPLFYPWQDWALGVLHAKIIAAITLMGPQWWLKTVIEQVYANGIRNIDLHYIVRKLAAPVISVLLLSLCVPYVIASGVVPLLGVTAEMQNLVHRRIYPFLLMVVVLMAILSFQVRQFKRLYEHIKNDKYLVGQRLVNYERKSGKQGSSPPPPQSSQE

Variants of B1 are the subject of this assay. Conditions: with erg1_human SQLE.
For the variant C9A, the “effect of a mutation on the interaction” value is “increasing interaction”.
